B1: HDV Ribozyme (parent)
chain: GGCCGGCAUGGUCCCAGCCUCCUCGCUGGCGCCGGCUGGGCAACAUUCCGAGGGGACCGUCCCCUCGGUAAUGGCGAAUGGGACCCA

Variants of: B1
Assay: self-cleavage, relative activity (ratio to wild type); higher = more cleavage; co-transcriptional

Variant	self-cleavage
GGCCGGCAUGGGCCCAGCCUCCUCGCUGGCGCCGGCAGGGCAACAUUCCGAGGGGACCGUCCCCUCGGUAAUGGCGAAUGGGACCCA [U12G U37A]	0.0554
GGCCGGCAUGGUACCAGCCUCCUCGCUGGCGCCGGCUGGGCAACAUUCCGAGGGGACCGUCCCCUCGGUGAUGGCGAAUGGGACCCA [C13A A70G]	0.166
GGCCGGCAUGGUACCAGCCUCCUCGCUGGCGCCGGCUGGGCAACAUUCCGAGGGGAACGUCCCCUCGGUAAUGGCGAAUGGGACCCA [C13A C57A]	0.185
GGCCGGCAUGGGCCCAGCCUCCUCGCUGGCGCCGGCUGGGCAACAUUCCGAGGGGACCGUCCCCUCGGUAAUGGCGAAAGGGACCCA [U12G U79A]	0.939
GGCCGGCAUGGGCCCAGCCUCCUCGCUGGCGCCGGCUGGGCAACAUUCCGAGGGGACCGUCCCCUCGGUAAUGGCGAAGGGGACCCA [U12G U79G]	0.639
GGCCGGCAUGGGCCCAGCCUCCUCGCUGGCGCCGGCUGGGCAACAUUCCAAGGGGACCGUCCCCUCGGUAAUGGCGAAUGGGACCCA [U12G G50A]	0.787
GGCCGGCAUGGUACCAGCCUCCUCGCUGGCGCCGGCUGGGCAACAUUCAGAGGGGACCGUCCCCUCGGUAAUGGCGAAUGGGACCCA [C13A C49A]	0.0489
GGCCGGCAUGGUACCAGCCUCCUCGCUGGCGCCGGCUGGGCAACAUUCCGAGGGGACCGUCCACUCGGUAAUGGCGAAUGGGACCCA [C13A C63A]	0.155
GGCCGGCAUGGUACCUGCCUCCUCGCUGGCGCCGGCUGGGCAACAUUCCGAGGGGACCGUCCCCUCGGUAAUGGCGAAUGGGACCCA [C13A A16U]	0.536
GGCCGGCAUGGGCCCAGCCUCCUCGCUGGCGCCGGCUGGGCAACAUUCAGAGGGGACCGUCCCCUCGGUAAUGGCGAAUGGGACCCA [U12G C49A]	0.935
GGCCGGCAUGGUACCAGCCUCCUCGCUGGAGCCGGCUGGGCAACAUUCCGAGGGGACCGUCCCCUCGGUAAUGGCGAAUGGGACCCA [C13A C30A]	0.0594
GGCCGGCAUGGUACCAGCCUCCUCGCUGGGGCCGGCUGGGCAACAUUCCGAGGGGACCGUCCCCUCGGUAAUGGCGAAUGGGACCCA [C13A C30G]	0.0282
GGCCGGCAUGGGCCCAGCCUCCUCGCUGGCGCCAGCUGGGCAACAUUCCGAGGGGACCGUCCCCUCGGUAAUGGCGAAUGGGACCCA [U12G G34A]	0.0791
GGCCGGCAUGGGCCCAGCCUCCUCGCUGGCGCCGGCUGGGCAACAUUCCGAGGGGACCGUCCCCUCGGUAAUGGCGAAUGGGACGCA [U12G C85G]	0.369
GGCCGGCAUGGGCCCAGCCUCCUCGCUGGCGCCGGCUGGGCAACAUUCCGACGGGACCGUCCCCUCGGUAAUGGCGAAUGGGACCCA [U12G G52C]	0.937
GGCCGGCAUGGGCCCAGCCUCCUCGCUGGCGCCGGCUGGGCAACAUACCGAGGGGACCGUCCCCUCGGUAAUGGCGAAUGGGACCCA [U12G U47A]	0.776

Variant	self-cleavage
GGCCGGCAUGGGCCCAGCCUCCUCGCUGGCGCCGGCUGGGCAACAUUCCGAGGGGACCGUCCCCUCGGAAAUGGCGAAUGGGACCCA [U12G U69A]	0.997
GGCCGGCAUGGUACCAGCCUCCUCGCUGGCGCCGGCUGGGCAUCAUUCCGAGGGGACCGUCCCCUCGGUAAUGGCGAAUGGGACCCA [C13A A43U]	0.154
GGCCGGCAUGGUACCAGCCUCCUCGCUGGCGCCGGCUGGGCUACAUUCCGAGGGGACCGUCCCCUCGGUAAUGGCGAAUGGGACCCA [C13A A42U]	0.0845
GGCCGGCAUGGUACCAGCCUCCUCGCUGGCGCCGGCUGGGCGACAUUCCGAGGGGACCGUCCCCUCGGUAAUGGCGAAUGGGACCCA [C13A A42G]	0.142
GGCCGGCAUGGGCCCAGCCACCUCGCUGGCGCCGGCUGGGCAACAUUCCGAGGGGACCGUCCCCUCGGUAAUGGCGAAUGGGACCCA [U12G U20A]	0.0573
GGCCGGCAUGGGCCCAUCCUCCUCGCUGGCGCCGGCUGGGCAACAUUCCGAGGGGACCGUCCCCUCGGUAAUGGCGAAUGGGACCCA [U12G G17U]	0.475
GGCCGGCAUGGGCCCAGCCUCCGCGCUGGCGCCGGCUGGGCAACAUUCCGAGGGGACCGUCCCCUCGGUAAUGGCGAAUGGGACCCA [U12G U23G]	0.256
GGCCGGCAUGGUACCAGCCUCCUCGCUGGCGCCGGCUGGGCAACGUUCCGAGGGGACCGUCCCCUCGGUAAUGGCGAAUGGGACCCA [C13A A45G]	0.158
GGCCGGCAUGGUACCAGCCUCCUCGCUGGCGCCGGCUGGGCAACAUUCCGAGGGGACCGUACCCUCGGUAAUGGCGAAUGGGACCCA [C13A C61A]	0.163
GGCCGGCAUGGUACCAGCCUCCUCGCUGGCGCCGGCUGGGCAACAUUCCGAGGGGACCGUGCCCUCGGUAAUGGCGAAUGGGACCCA [C13A C61G]	0.0959
GGCCGGCAUGGUACCAGCCUCCUCGAUGGCGCCGGCUGGGCAACAUUCCGAGGGGACCGUCCCCUCGGUAAUGGCGAAUGGGACCCA [C13A C26A]	0.623
GGCCGGCAUGGUACCAGCCUCCUCGGUGGCGCCGGCUGGGCAACAUUCCGAGGGGACCGUCCCCUCGGUAAUGGCGAAUGGGACCCA [C13A C26G]	0.657
GGCCGGCAUGGGCCCAGCCUCCUCUCUGGCGCCGGCUGGGCAACAUUCCGAGGGGACCGUCCCCUCGGUAAUGGCGAAUGGGACCCA [U12G G25U]	0.0573
GGCCGGCAUGGGCCCAGCCUCCUCGCUGGCGCCGGCUGGGCAACAUUCCGAGGGGACCUUCCCCUCGGUAAUGGCGAAUGGGACCCA [U12G G59U]	0.973
GGCCGGCAUGGGCCCAGCCUCCUCGCUGGCGCCGGCUUGGCAACAUUCCGAGGGGACCGUCCCCUCGGUAAUGGCGAAUGGGACCCA [U12G G38U]	0.0755
GGCCGGCAUGGGCCCAGCCUCCUCGCUGGCGCCGGCUCGGCAACAUUCCGAGGGGACCGUCCCCUCGGUAAUGGCGAAUGGGACCCA [U12G G38C]	0.178

— the RNAGym collection of RNA variant scans (doi:10.7554/elife.80360)
